This is an account of results in publication PMC10397247.

What all share (assay): two-hybrid library CCNG1;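 further: natural log of median RNA to DNA barcode read ratio; higher means stronger binding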
One test has as its target T1, 4H3631-bN.
T1 chain: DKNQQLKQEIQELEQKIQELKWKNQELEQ

A further test concerns the target T2, 4H570-bN.
T2 chain: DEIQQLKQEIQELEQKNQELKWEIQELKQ

A further test has as its target T3, 4H584-bN.
T3 chain: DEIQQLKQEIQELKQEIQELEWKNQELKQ

For another test, the target named is T4, 4H3817-bN.
T4 chain: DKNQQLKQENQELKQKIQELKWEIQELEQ

The next test deals with T5, O10-bA.
T5 chain: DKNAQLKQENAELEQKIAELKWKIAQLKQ

In a further test the target is T6, 4H619-bN.
T6 chain: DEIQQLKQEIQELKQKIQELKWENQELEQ

For another test, the target named is T7, 4H906-bN.
T7 chain: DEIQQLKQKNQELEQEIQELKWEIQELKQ

In the next test the target is T8, 4H3974-bN.
T8 chain: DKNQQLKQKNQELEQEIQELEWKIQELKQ

In another test the target is T9, 4H850-bN.
T9 chain: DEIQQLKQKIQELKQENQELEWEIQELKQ

Another test deals with T10, 4H3638-bN.
T10 chain: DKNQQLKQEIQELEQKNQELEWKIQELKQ

Another test concerns the target T11, 4H2442-bH.
T11 chain: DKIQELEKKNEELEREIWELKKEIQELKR

Another test has as its target T12, 4H2667-bH.
T12 chain: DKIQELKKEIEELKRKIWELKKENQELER

For a further test, the target named is T13, 4H967-bH.
T13 chain: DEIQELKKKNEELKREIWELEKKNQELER

For the next test, the target named is T14, 4H2576-bH.
T14 chain: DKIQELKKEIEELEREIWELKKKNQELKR

The next test deals with T15, 4H3185-bH.
T15 chain: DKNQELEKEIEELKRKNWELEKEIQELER

The target of another test is T16, 4H1845-bH.
T16 chain: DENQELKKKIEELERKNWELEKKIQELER

In another test the target is T17, 4H4001-bH.
T17 chain: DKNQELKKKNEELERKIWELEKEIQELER

Another test deals with T18, 4H717-bH.
T18 chain: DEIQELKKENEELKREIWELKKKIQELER

The next test deals with T19, 4H3427-bH.
T19 chain: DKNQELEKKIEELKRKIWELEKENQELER

A further test has as its target T20, 4H331-bH.
T20 chain: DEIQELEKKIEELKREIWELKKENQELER

In another test the target is T21, 4H3354-bH.
T21 chain: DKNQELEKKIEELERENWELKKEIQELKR

The target in another test is T22, 4H953-bH.
T22 chain: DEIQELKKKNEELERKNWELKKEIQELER

In a further test the target is T23, 4H568-bH.
T23 chain: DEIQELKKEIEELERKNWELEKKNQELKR

The next test concerns the target T24, 4H3782-bH.
T24 chain: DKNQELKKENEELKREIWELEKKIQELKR

Another test deals with T25, 4H607-bH.
T25 chain: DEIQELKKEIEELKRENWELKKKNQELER

The next test has as its target T26, 4H2673-bA.
T26 chain: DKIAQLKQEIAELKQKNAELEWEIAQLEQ

A further test has as its target T27, 4H2618-bH.
T27 chain: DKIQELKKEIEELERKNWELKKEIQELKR

In a further test the target is T28, 4H883-bH.
T28 chain: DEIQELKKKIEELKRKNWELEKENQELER

In a further test the target is T29, 4H454-bH.
T29 chain: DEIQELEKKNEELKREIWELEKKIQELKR

A further test has as its target T30, 4H338-bH.
T30 chain: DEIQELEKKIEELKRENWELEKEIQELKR

The target in another test is T31, 4H908-bH.
T31 chain: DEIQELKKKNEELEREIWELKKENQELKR

The target in the next test is T32, 4H3297-bN.
T32 chain: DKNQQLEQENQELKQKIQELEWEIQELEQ

A further test has as its target T33, 4H687-bH.
T33 chain: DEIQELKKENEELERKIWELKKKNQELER

Another test addresses T34, 4H2729-bH.
T34 chain: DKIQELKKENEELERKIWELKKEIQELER

Another test concerns the target T35, 4H3855-bH.
T35 chain: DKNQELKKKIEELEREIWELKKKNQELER

In another test the target is T36, 4H3112-bH.
T36 chain: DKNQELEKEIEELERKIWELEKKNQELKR

In a further test the target is T37, 4H72-bH.
T37 chain: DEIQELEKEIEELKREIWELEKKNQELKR

The target of the next test is T38, 4H918-bH.
T38 chain: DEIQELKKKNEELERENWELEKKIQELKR

The target of the next test is T39, 4H1828-bH.
T39 chain: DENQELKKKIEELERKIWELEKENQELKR

The next test concerns the target T40, 4H797-bH.
T40 chain: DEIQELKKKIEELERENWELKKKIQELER

In the next test the target is T41, 4H754-bH.
T41 chain: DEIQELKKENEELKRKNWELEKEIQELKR

A further test concerns the target T42, O13-bA.
T42 chain: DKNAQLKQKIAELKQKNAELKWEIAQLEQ

Another test addresses T43, O11-bA.
T43 chain: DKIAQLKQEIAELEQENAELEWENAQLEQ

A further test addresses T44, O6-bA.
T44 chain: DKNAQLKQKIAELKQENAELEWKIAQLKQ

The next test deals with T45, O2-bA.
T45 chain: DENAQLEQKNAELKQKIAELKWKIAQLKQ

The target of another test is T46, O4-bA.
T46 chain: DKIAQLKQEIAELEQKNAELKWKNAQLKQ

The target in a further test is T47, O12-bA.
T47 chain: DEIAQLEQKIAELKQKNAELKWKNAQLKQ

Another test deals with T48, O7-bA.
T48 chain: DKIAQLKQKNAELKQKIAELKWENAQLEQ

For another test, the target named is T49, O16-bA.
T49 chain: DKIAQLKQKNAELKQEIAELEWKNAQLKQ

A further test deals with T50, O9-bA.
T50 chain: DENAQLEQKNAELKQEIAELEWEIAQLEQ
As to conditions: mean of both orientations.

The next test has as its target T51, O3-bA.
T51 chain: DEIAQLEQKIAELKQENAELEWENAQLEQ

The next test deals with T52, O8-bA.
T52 chain: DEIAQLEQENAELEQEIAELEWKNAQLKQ

Another test addresses T53, O5-bA.
T53 chain: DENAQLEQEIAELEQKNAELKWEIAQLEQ

Another test concerns the target T54, O14-bA.
T54 chain: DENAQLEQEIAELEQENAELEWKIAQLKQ

The target in another test is T55, O15-bA.
T55 chain: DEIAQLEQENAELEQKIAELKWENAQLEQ

Read-outs that look alike come from different tables or passages of the source.

As for DKNQQLKQEIQELEQKIQELKWKNQELEQ [4H3631-bN], the interaction score in the test with 4H3631-bN was -0.0832; with 4H570-bN it was -1.51; in the test with 4H584-bN it was 0.98; with 4H3817-bN, -0.125; with O10-bA, 0.22; in the test with 4H619-bN, -0.252. For the same molecule, the interaction score was -0.602 in the test with 4H906-bN, -0.31 with 4H3974-bN, -1.06 in the test with 4H850-bN and -1.15 with 4H3638-bN.

In the case of DENQELKKKIEELERKIWELEKENQELKR [4H1828-bH], the interaction score with 4H2442-bH is 0.0564; with 4H2667-bH it was 1.08; with 4H967-bH, -0.867; with 4H2576-bH, -1.69; in the test with 4H3185-bH, -0.478; in the test with 4H1845-bH, -0.21. Further, the interaction score is 0.309 with 4H4001-bH; 0.163 with 4H717-bH; 0.362 with 4H3427-bH; -0.37 with 4H331-bH; 0.672 with 4H3354-bH; -0.675 with 4H953-bH. Moreover, the interaction score in the test with 4H568-bH is -1.34; with 4H3782-bH, 0.484; with 4H607-bH, -2.38; with 4H2673-bA it was -3.95; in the test with 4H2618-bH, 0.369; with 4H883-bH, 0.204. For the same molecule, the interaction score was 0.741 in the test with 4H454-bH; 1.16 with 4H338-bH; -0.285 in the test with 4H908-bH; -1.01 with 4H3297-bN; -0.438 with 4H687-bH; -0.147 in the test with 4H2729-bH. For the same molecule, the interaction score in the test with 4H3855-bH stood at 0.0964; with 4H3112-bH, 0.767; with 4H72-bH it was 0.102; with 4H918-bH, 0.157; in the test with 4H1828-bH, 0.57; with 4H797-bH, 0.474. Besides, in the test with 4H754-bH, the interaction score was determined as 0.147.

For DKNAQLKQENAELEQKIAELKWKIAQLKQ [O10-bA], the interaction score in the test with O13-bA was 0.636; in the test with O11-bA it was 0.88; in the test with O10-bA (mean of both orientations) it was 0.0957; with O6-bA it was 0.6; in the test with O2-bA, 1.79; with O4-bA it was -0.577. For the same molecule, the interaction score with O12-bA is -0.395; with O7-bA it was 0.923; with O16-bA, 0.945; in the test with O9-bA, 1.74; in the test with O3-bA it was -1.28; with O8-bA it was 0.126. Also, the interaction score with O5-bA was -0.944; with O14-bA, -1.3; in the test with O15-bA, 0.0908.
